Key:
[1] = molecular target: nesprin-2G SR11-12 (spectrin repeats 11-12 of human nesprin-2) (human); assay: BLI
[2] = molecular target: nesprin-2G SR11-13 (spectrin repeats 11-13 of human nesprin-2) (human); assay: BLI

Kd [1]: 472 nM | Kd [2]: 92 nM
B1: FHOD1 SRBD-DID (amino terminal construct of human FHOD1) (domain or fragment)
chain: SVVTVRVQYLEDTDPFACANFPEPRRAPTCSLDGALPLGAQIPAVHRLLGAPLKLEDCALQVSPSGYYLDTELSLEEQREMLEGFYEEISKGRKPTLILRTQLSVRVNAILEKLYSSSGPELRRSLFSLKQIFQEDKDLVPEFVHSEGLSCLIRVGAAADHNYQSYILRALGQLMLFVDGMLGVVAHSDTIQWLYTLCASLSRLVVKTALKLLLVFVEYSENNAPLFIRAVNSVASTTGAPPWANLVSILEEKNGADPELLVYTVTLINKTLAALPDQDSFYDVTDALEQQGMEALVQRHLGTAGTDVDLRTQLVLYENAL

From publication doi:10.1101/2025.06.13.659598
